# Assay: soluble fraction after stress (log2 fold change); higher = more stays soluble; pooled small domains, quantitative proteomics
# Conditions: stress: pH 4
# Method in brief: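 Aggregation propensity is estimated from the fold change in each domain's soluble amount after acid stress. Pooled small-domain libraries were stressed at pH 4, and higher log2 values mean more stayed soluble.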
row,Sequence,soluble fraction (log2)
1,HMYEDNERNLYSVVINFLNEHKIKISREAINLVINRSSGDKHNLKQELNKILNYSFSNKNITYETIEKLSN,0.0456
2,HMYEDNERSLVPIVQNFLKEKKILLSNQSINLIVQRSGGDRINLYNELQKIESFSKNQKKIDIGDIIKLTN,0.169
3,HMYEDSNQSLNFFAIKFIKEKNIKISQETTNLIVERARGDRGNLINELQKLEALSLTRKKITQEDVFNLTN,0.22
4,HMYEGLILINKYDSLVSAKLETNKIKSLGLFFEDMEEKIAVFSGPFKNNDINLKLDFLIRNGYLDAKIY,-1.53
5,HMYEIEDIKEKLLDLLANSKTGFSGLEISNRLGINRITVSKYLNIFSAEGLIKQKNIGNVIIWFVEDGIE,-0.791
6,HMYEVDGLGIRIAQLRKKQDLTQEAFARTLGVSPQAVSKWETGIGYPDITLLPQIAKELGVSIDQLFGRN,0.0751
7,HMYFGDADGNKKVDAADALYLKRHLADWEDYRELPQKTNVSWMDEASPANLMILERHIAGWKDYEMLPYT,-0.19
8,HMYFMDEETWESKKTLLNDWYEANPEYADRRAISDGLFKIGDLQPDFRRRHWGSIGVIFADIPNSPMG,-1.37
9,HMYGHKLDSYESYVVSELRRWPFLSAPQIHDRLKEHFSDLPLVTPKTVFNFVNRLRLTHSLPKE,-0.215
10,HMYGLSFLIGFTVVDRTYGDIGKVTAIDDSTVNTLMAVGDRLIPAQEAFITKIDNTKKIIYTQLPEGLL,-0.512
11,HMYGTQTVNRGAVQPGMLVKHKDSTWTASANARGRLYLHRGVEMTYTRDLLVEVYLNGLGNGL,-0.342
12,HMYHADLIGLRVETAAGEKLGTVKAVHNFGAGDVIEITGAEDKDGLMVPFTAEVVPEVDIENGRIVVS,-0.868
13,HMYHKKEKAQAANIEERIMILLSDGKHHHITEIKAIYVDEVITLNILEEMLAEEKVIIEGDMIMLVE,-1.47
14,HMYKLTTQRRAILDVIIENHDKHLNPEEIYDIVKEKYPEIGIATVYRTLQLLEKLNIIYRLNFDDGYNRYE,-1.12
15,HMYKLTYVVDGEVYLEETVSYGSKIAAAPAPEKEGYTFSGWEGLPEVMPAKDVTVSGSFTVN,-0.0428
16,HMYKMKDRIKKIMEMQRTTQQDFADQLKIAPATLSSIFTGRTRPTLAIVDAIKSRFPQISTDWLMFGKGDM,0.22
17,HMYKNAFITYDNNLYYLGSDSKMAIGWQSIGGNTYYFRNWGGMITGKQVIDGKTYVFDEDGKLVQSPD,-0.807
18,HMYLNYQTIGKRIRLLRKQQHLTQMTLAEMVDKSPTYISLVENGQKGPSLETLIDVANALKVTMDVLLAEY,-1.58
19,HMYLPPYMEVRAVMILDGKPMALMYIEGEGDGLIVSPGYKFDNGKGKVVSITPTKVVVLWAGTKMELG,-1.17
20,HMYLYHDLSDEAKAMGDEYVSVEHLVLALIRYPNNAVKELFREFGITRERFLQVLSTIRGNQRVTSDNPEA,-0.194
21,HMYMFSGQRLKSLRKEKKMSQEKLGSLLNISKVAVSNWENAKSFPTMDNLNELAKVLEVEPHYF,-0.41

row,Sequence,soluble fraction (log2)
1,HMYMKLSVKDAALFLSVSPETVYRWVKQEEIPYHTVNDQLRFNRAELLEWATARSLEVSPDLFVP,-1.53
2,HMYMWQVEDLIRANGLDIERIKDSIIRPYELDEERKRELTQWYEDLIDMMRREGVAQSGHLQIN,-2.24
3,HMYNMEELAGHTEKVYNSLPEELKLVIKLREIENMSYDEISLKTGMPIGTVRSRLHRAREILVDSLKDY,-0.491
4,HMYQNRLFYTLKTGETVADLSKSQDINLSTIWSLNKHLYSSESEMMKAAPGQQIILPLKKLP,0.135
5,HMYQPLRDVIFETLRKAIVSGDIKPGERLMEVSLANQMGVSRTPVREAIRRLEAEGLVTMTPRKGTHVAE,-0.215
6,HMYQRLPFSFANRYKMVLESQHPERAPILYYVEPLKSAAIIEVSRVVKNGFTPQAITLDEFDKKLTDAYQR,-0.0881
7,HMYRLSPSWRIVERDDGFEIYGGDDARFQLDPSPLVSRLAAGDAVTRDGLDPTGAIEFEQLLSAGMIRPEI,-0.829
8,HMYRYTTFKVKEADTLLPFIQKSLNGISHNRAKAILTGGGVLVDKKITRAYDFALRPGMTVEISKSKP,≥ 0.43
9,HMYRYYSTLRPITPGAYPKPADNPAMLIHNFDNREYVGKIGREAWGYVEYNNPLTKEQIEAFDFVAE,-0.0236
10,HMYSDIERAMTNAPEQFANKQAVLDFLNKNRIKKSEVDDYRIASLLKLYDDASPISKTEIISQVRT,-0.0708
11,HMYSDQRMEIFLEHLPDFIEQLSHKHVTRQMVWEDYRMIYPDGYGKSQFFFHLAQNLKAQKP,-0.489
12,HMYSYSFTSSEGSTFEGQLIRVEESQVTILRYADQKEFSIPKSRFIEADQVYFERWAIENPQL,-2.88
13,HMYSYSGSVSNTHDVPVSVVLKDAEGVAIASWDLQAKQSLNISAKDIATSSGTIEITGDGVSETKTVTFTK,-0.229
14,HMYTVKELSRLTGLTPRTLRYYDAIGLLSPARNRDNDYRLYGGAEVDRLQEILLYREMGLPLEEIGRILD,-0.491
15,HMYTVQPHESLWSIAASQLGDGHRFTEIVDLNQELLGGKANFIKPGWVLQIP,-0.911
16,HMYTVVVGDSPSLIADKTGVPLKELTAMNPNLSDNFLPGKQLL,-0.076
17,HMYVEVPNFIGVPLVKVQSELASLGLVFNKSVVYQTSPYLKGNILDQRPLPGEVVPLNTEMSFTVSSGPA,-0.686
18,HMYVKIAADAAMPYTIKRVVTDYSSAALDAAYDGSLPKWLTISSSTKDAGSGLYRHEIIYTVTAHPE,-0.942
19,HMYVYEPGEFAVRGSILDVYSYASEFPYRIDFFGDDVESIRTFEVQTQLSKEAKDRVSIVPDTEQ,-0.585
20,HMYYNDEELDGYRGTPSDAYSDNAVEEFREVLYTLREDEVSGWVRSLQLRGIFLPDAIKDETFLI,-1.84
21,HMYYTAPDGRKREILDAALRLIAAGGPDSLTYRRVADEAGVPLGSLTYYFEAREDLIREAFRLYIAEASR,-1.6

# Reference: the domain aggregation screens of Martell et al. (2025)
